Key:
[1] = molecular target: HPeV3-2A (2A^H/NC protein of human parechovirus 3) (Human parechovirus 3 (HPeV3)); assay: SEC-MALS
[2] = molecular target: HPeV3-2A (2A^H/NC protein of human parechovirus 3) (Human parechovirus 3 (HPeV3)); assay: SEC-SAXS
[3] = molecular target: HPeV3-2A (2A^H/NC protein of human parechovirus 3) (Human parechovirus 3 (HPeV3)); assay: crystal structure
[4] = molecular target: LV1-2A2 (2A2 protein of Ljungan virus 1, isolate 87-012) (Ljungan virus 1 (isolate 87-012)); assay: crystal structure
[5] = molecular target: LV4-2A2 (full-length 2A2 protein of Ljungan virus 4, strain 64-7855) (Ljungan virus 4 (strain 64-7855)); assay: SEC-MALS
[6] = molecular target: LV4-2A2 (full-length 2A2 protein of Ljungan virus 4, strain 64-7855) (Ljungan virus 4 (strain 64-7855)); assay: SEC-SAXS
[7] = molecular target: LV4-2A2^1-122 (C-terminally truncated 2A2 protein of Ljungan virus 4) (Ljungan virus 4 (strain 64-7855)); assay: SEC-MALS
[8] = molecular target: LV4-2A2^1-122 (C-terminally truncated 2A2 protein of Ljungan virus 4) (Ljungan virus 4 (strain 64-7855)); assay: crystal structure
[9] = molecular target: SEBV1-2A2 (2A2 protein of Sebokele virus 1) (Sebokele virus 1 (SEBV1)); assay: SEC-MALS
[10] = molecular target: SEBV1-2A2 (2A2 protein of Sebokele virus 1) (Sebokele virus 1 (SEBV1)); assay: SEC-SAXS
[11] = molecular target: SEBV1-2A2 (2A2 protein of Sebokele virus 1) (Sebokele virus 1 (SEBV1)); assay: crystal structure

HPeV3-2A (2A^H/NC protein of human parechovirus 3) (natural protein)
stoichiometry N [1]: 2 | stoichiometry N [2]: 2 | stoichiometry N [3]: 4

LV1-2A2 (2A2 protein of Ljungan virus 1, isolate 87-012) (natural protein)
stoichiometry N [4]: 2

LV4-2A2 (full-length 2A2 protein of Ljungan virus 4, strain 64-7855) (natural protein)
stoichiometry N [5]: 2 | stoichiometry N [6]: 2

LV4-2A2^1-122 (C-terminally truncated 2A2 protein of Ljungan virus 4) (domain or fragment)
stoichiometry N [7]: 2 | stoichiometry N [8]: 2

SEBV1-2A2 (2A2 protein of Sebokele virus 1) (natural protein)
stoichiometry N [9]: 2 | stoichiometry N [10]: 2 | stoichiometry N [11]: 2

From article doi:10.1101/2024.04.06.588386
